Results on 6 molecules are retold here after US20250002601A1 (INNATE PHARMA, published 2025).

The target in assay [1] is IL-2 receptor on cells of human PBMC (NK cells, CD4 T cells, CD8 T cells, Tregs). As to the kind of experiment: cell-based or functional assay.
A further assay has as its target T1, HuCD122-His (human, UniProt P14784 27-239).
T1 construct: Captured on an anti-His CM5 chip; also called interleukin 2 receptor beta; IL2RP
T1 sequence (looked up): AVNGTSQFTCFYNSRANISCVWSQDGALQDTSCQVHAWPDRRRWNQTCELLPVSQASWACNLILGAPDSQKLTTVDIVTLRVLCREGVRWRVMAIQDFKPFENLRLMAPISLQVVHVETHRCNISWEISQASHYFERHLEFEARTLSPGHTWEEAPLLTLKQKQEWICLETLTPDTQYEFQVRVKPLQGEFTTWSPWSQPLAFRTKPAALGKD
As to the kind of experiment: SPR (Biacore), HuCD122-His captured on anti-His CM5 chip, analyte 31.25 nM to 1 µM, steady-state fit. As for the experimental part:
Briefly, a biacore instrument was used with a CM5 chip comprising an immobilized anti-His antibody. Ligand HuCD122-His was injected at a dilution of […] to be captured on the chip. Proteins CD20-2-T5A-NKCE4-v2, CD20-2-T6AB3-NKCE4-v2A, CD20-2-T13A-NKCE4-v2A was then injected during 120 s with a flow of 10 μL/min, at a concentrations range from 31.25 nM to 1 μM. The interaction between these proteins and HuCD122-His was studied with a dissociation time of 600 s. The chip was then regenerated with NaOH 10 mM at a flow of 40 μL/min during 10 sec.
Date has been analysed under the steady-state model, that seemed to be the most accurate regarding sensograms appearance.

B1: CD20-1-T5-NKCE4-v3 (bispecific antibody)
light: not shown
heavy: not shown
chain: DIQMTQSPSSLSASVGDRVTITCRASQDISNYLNWYQQKPGKAPKLLIYYTSRLHSGVPSRFSGSGSGTDFTFTISSLQPEDIATYFCQQGNTRPWTFGGGTKVEIKASTKGPSVFPLAPSSKSTSGGTAALGCLVKDYFPEPVTVSWNSGALTSGVHTFPAVLQSSGLYSLSSVVTVPSSSLGTQTYICNVNHKPSNTKVDKRVEPKSCDKTHSGSSSSGSSSSGSSSSTKKTQLQLEHLLLDLQMILNGINNYKNPKLTAMLAKKFYMPKKATELKHLQCLEEELKPLEEVLNLAQSKNFHLRPRDLISNINVIVLELKGSETTFMCEYADETATIVEFLNRWITFCQSIISTLT
In the case of B1, the “% of pSTAT5+ cells among NK cells” value in assay [1] is roughly 1 log.

B2: CD20-3-T5-NKCE4-v3 (bispecific antibody)
light: not shown
heavy: not shown
chain: DIQMTQSPSSLSASVGDRVTITCRASQDISNYLNWYQQKPGKAPKLLIYYTSRLHSGVPSRFSGSGSGTDFTFTISSLQPEDIATYFCQQGNTRPWTFGGGTKVEIKASTKGPSVFPLAPSSKSTSGGTAALGCLVKDYFPEPVTVSWNSGALTSGVHTFPAVLQSSGLYSLSSVVTVPSSSLGTQTYICNVNHKPSNTKVDKRVEPKSCDKTHSGSSSSGSSSSGSSSSTKKTQLQLEHLLLDLQMILNGINNYKNPKLTAMLAKKFYMPKKATELKHLQCLEEELKPLEEVLNLAQSKNFHLRPRDLISNINVIVLELKGSETTFMCEYADETATIVEFLNRWITFCQSIISTLT
For the molecule B2, the “% of pSTAT5+ cells among NK cells” value in assay [1] is roughly 1 log.

B3: CD20-2-T5-NKCE4-v3 (bispecific antibody)
light: not shown
heavy: not shown
chain: DIQMTQSPSSLSASVGDRVTITCRASQDISNYLNWYQQKPGKAPKLLIYYTSRLHSGVPSRFSGSGSGTDFTFTISSLQPEDIATYFCQQGNTRPWTFGGGTKVEIKASTKGPSVFPLAPSSKSTSGGTAALGCLVKDYFPEPVTVSWNSGALTSGVHTFPAVLQSSGLYSLSSVVTVPSSSLGTQTYICNVNHKPSNTKVDKRVEPKSCDKTHSGSSSSGSSSSGSSSSTKKTQLQLEHLLLDLQMILNGINNYKNPKLTAMLAKKFYMPKKATELKHLQCLEEELKPLEEVLNLAQSKNFHLRPRDLISNINVIVLELKGSETTFMCEYADETATIVEFLNRWITFCQSIISTLT
Turning to B3, the “% of pSTAT5+ cells among NK cells” value in assay [1] was roughly 1 log.

B4: CD20-4-T5-NKCE4-v3 (bispecific antibody)
light: not shown
heavy: not shown
chain: DIQMTQSPSSLSASVGDRVTITCRASQDISNYLNWYQQKPGKAPKLLIYYTSRLHSGVPSRFSGSGSGTDFTFTISSLQPEDIATYFCQQGNTRPWTFGGGTKVEIKASTKGPSVFPLAPSSKSTSGGTAALGCLVKDYFPEPVTVSWNSGALTSGVHTFPAVLQSSGLYSLSSVVTVPSSSLGTQTYICNVNHKPSNTKVDKRVEPKSCDKTHSGSSSSGSSSSGSSSSTKKTQLQLEHLLLDLQMILNGINNYKNPKLTAMLAKKFYMPKKATELKHLQCLEEELKPLEEVLNLAQSKNFHLRPRDLISNINVIVLELKGSETTFMCEYADETATIVEFLNRWITFCQSIISTLT
Consider B4, for which the “% of pSTAT5+ cells among NK cells” value in assay [1] is roughly 1 log.

B5: CD20-2-T6AB3-NKCE4-v2A (bispecific antibody, human IgG1, kappa)
chain 1: not shown
chain 2: EVQLVESGGGLVQPDRSLRLSCAASGFTFHDYAMHWVRQAPGKGLEWVSTISWNSGTIGYADSVKGRFTISRDNAKNSLYLQMNSLRAEDTALYYCAKDIQYGNYYYGMDVWGQGTTVTVSSASTKGPSVFPLAPSSKSTSGGTAALGCLVKDYFPEPVTVSWNSGALTSGVHTFPAVLQSSGLYSLSSVVTVPSSSLGTQTYICNVNHKPSNTKVDKRVEPKSCDKTHTCPPCPAPEAEGAPSVFLFPPKPKDTLMISRTPEVTCVVVDVSHEDPEVKFNWYVDGVEVHNAKTKPREEQYNSTYRVVSVLTVLHQDWLNGKEYKCKVSNKALPSSIEKTISKAKGQPREPQVYTLPPSREEMTKNQVSLTCLVKGFYPSDIAVEWESNGQPENNYKTTPPVLDSDGSFFLYSKLTVDKSRWQQGNVFSCSVMHEALHNHYTQKSLSLSPGSTGSQVQLVQSGAEVKKPGSSVKVSCKASGYTFSDYVINWVRQAPGQGLEWMGEIYPGSGTNYYNEKFKAKATITADKSTSTAYMELSSLRSEDTAVYYCARRGRYGLYAMDYWGQGTTVTVSSRTVAAPSVFIFPPSDEQLKSGTASVVCLLNNFYPREAKVQWKVDNALQSGNSQESVTEQDSKDSTYSLSSTLTLSKADYEKHKVYACEVTHQGLSSPVTKSFNRGEC
chain 3: DIQMTQSPSSLSASVGDRVTITCRASQDISNYLNWYQQKPGKAPKLLIYYTSRLHSGVPSRFSGSGSGTDFTFTISSLQPEDIATYFCQQGNTRPWTFGGGTKVEIKASTKGPSVFPLAPSSKSTSGGTAALGCLVKDYFPEPVTVSWNSGALTSGVHTFPAVLQSSGLYSLSSVVTVPSSSLGTQTYICNVNHKPSNTKVDKRVEPKSCDKTHSGSSSSGSSSSGSSSSTKKTQLQLEHLLLDLQMILNGINNYKNPKLTAMLTKKFYMPKKATELKHLQCLEEELKPLEEVLNLAQSKNFHLRPRDLISNINVIVLELKGSETTFMCEYADETATIVEFLNRWITFAQSIISTLT
By Kd is commonly meant the concentration at which binding is half-saturated. Low readings indicate a tighter complex, high ones a looser complex. B5 had a Kd with HuCD122-His of 2840 nM.

B6: CD20-2-T5A-NKCE4-v2 (bispecific antibody, human IgG1, kappa)
chain 1: not shown
chain 2: not shown
chain 3: DIQMTQSPSSLSASVGDRVTITCRASQDISNYLNWYQQKPGKAPKLLIYYTSRLHSGVPSRFSGSGSGTDFTFTISSLQPEDIATYFCQQGNTRPWTFGGGTKVEIKASTKGPSVFPLAPSSKSTSGGTAALGCLVKDYFPEPVTVSWNSGALTSGVHTFPAVLQSSGLYSLSSVVTVPSSSLGTQTYICNVNHKPSNTKVDKRVEPKSCDKTHSGSSSSGSSSSGSSSSTKKTQLQLEHLLLDLQMILNGINNYKNPKLTAMLAKKFYMPKKATELKHLQCLEEELKPLEEVLNLAQSKNFHLRPRDLISNINVIVLELKGSETTFMCEYADETATIVEFLNRWITFCQSIISTLT
With B6, the Kd in the assay with HuCD122-His worked out at 1810 nM.
